Target: SpyTag-VP2 (N-terminal SpyTag chimera of the major structural protein VP2 of parvovirus B19) (not stated | parvovirus B19)
Experiment: SEC + other: light scattering (MALS, Zetasizer Ultra); different amounts of SpyTag-VP2 (2.5-60 mL of 0.142 mg/mL) loaded on a 5-mL HisTrap HP column; peak run on Sephacryl 300-HR in 2 M GdnHCl buffer; fractions of 18-28 nm pooled, BCA

## SpyTag-VP2 (N-terminal SpyTag chimera of the major structural protein VP2 of parvovirus B19)
  percent of the loaded protein recovered as VLPs: 95%
